# Experimental data from publication PMC3730230.
# Several values for one entry are separate records, joined by “and”; a condition that tells them apart may be missing. Equal entries are not always repeated.
# Molecular target: EGFR 1045+ add-back mutant (pY-null 9Y- backbone with Y1045 added back) (human) (UniProt P00533)
# Assay: co-IP
substance,measurement,value
"Cbl, endogenous in NR6 cells (from UniProt P22682 1-913) (enzyme)",fold reduction of association against EGFR-WT,4 fold and 5 fold
